B1: 01471/G6 antibody (human IgG1, kappa) (antibody, V domains shown)
VH: EVQLVESGGGVVQPGRSLRLSCAASGFTFSNYGMHWVRQAPGKGLEWVAIIWYDGSNKYYADSVKGRFTISRDNSKNTLYLQMNSLRAEDTAVYYCVKGSGDIPFDYWGQGTLVT
VL: EIVLTQSPATLSSSPGERATLSCRASQSVSSYLAWYQQKPGQAPRLLIYDASNRATGIPARFSGSGSGTDFTLTISSLEPEDFAVYYCHQRSHWPPIFTFGPGT
B2: 01771/E10 antibody (human IgG1, kappa) (antibody, V domains shown)
VH: QVQLVQSGGGVVQPGRSLRLSCAASGFTFSSYGMHWVRQAPGKGLEWVAIIWYDGSNKYYADSVKGRFTISRDNSKNTLYLQMNSLRAEDTAVYYCARLWFGDLDAFDIWGQGTMVT
VL: B1 VL with S13L, H93S
B3: 03161/H2 antibody (human IgG1, kappa) (antibody, V domains shown)
VH: B1 VH
VL: B1 VL with I58T
B4: 01951/G12 antibody (human IgG1, kappa) (antibody, V domains shown)
VH: EVQLVESGGGVVQPGRSLRLSCAASGFTFSSYGMHWVRQAPGKGLEWVAIIWYDGSNKYYADSVKGRFTISRDNSKNTLYLQMNSLRAEDTAVYYCARLWFGDLDAFDIWGQGTMVTVSS
VL: EIVLTQSPATLSLSPGERAILSCRAGQSVSSYLVWYQQKPGQAPRLLIYDASNRATGIPARFSGSGSGTDFTLTISSLEPEDFAVYYCQQRSSWPPVYTFGQGTKLEIKR
B5: 01471/G6 Fab (Fab, V domains shown)
VH: B1 VH
VL: B1 VL
notes: Soluble human Fab expressed in E. coli, kappa light chain (captured via anti-human L-kappa antibody); the printed variable regions stop short of the end of framework 4
B6: 01951/G12 Fab (Fab, V domains shown)
VH: B2 VH with Q1E, Q6E
VL: B1 VL with S13L, T20I, S26G, A34V, H89Q, H93S, I97V, F98Y, P102Q
notes: Soluble human Fab expressed in E. coli, kappa light chain
B7: 03161/H2 Fab (Fab, V domains shown)
VH: B1 VH
VL: B1 VL with I58T
notes: as for B6
B8: 01771/E10 Fab (Fab, V domains shown)
VH: B2 VH
VL: B1 VL with S13L, H93S
notes: as for B6

Where a chain is given by its changes, count along the chain named.

For one assay, the target named is T1, recombinant human IL-13 (human, UniProt P35225 35-146, limits assumed). The experiment in a line: cell-based or functional assay.
T1 sequence (P35225 35-146 limits assumed): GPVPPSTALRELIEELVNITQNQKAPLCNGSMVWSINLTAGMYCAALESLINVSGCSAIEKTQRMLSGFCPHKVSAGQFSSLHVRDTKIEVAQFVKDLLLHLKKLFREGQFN
Consider B1, for which the “EC50 [nM] human IL-13 (IL-13-induced eotaxin release from human lung fibroblasts)” value came to 1.23 nM.
Same read-out and setting: for B2 the value was 1.71 nM; for B3, 0.95 nM.
Same read-out and setting: the result for B4 reads 0.33 nM.

The target of another assay is T1, recombinant human IL-13. As to the kind of experiment: SPR, BIAcore 2000; Fab captured via anti-human L-kappa antibody, hrIL-13 injected; 1:1 Langmuir model. As to the method: Quantitative Analysis of Binding Affinities: Determination of Anti-Human IL-13 Fab Candidates Surface plasmon resonance measurements quantifying the interaction of anti-IL-13 Fabs with several hrIL-13 are performed using the optical biosensor, BIAcore 2000. Specific binding of IL-13 to a respective IL-13 Fab immobilized on a BIAcore chip can be measured by following accumulation of the ligand on the receptor. The microscopic association ($kon$) and dissociation rates ($koff$) can be obtained directly from the mass accumulation rates on the chip and are expressed in response units (RUs). Anti-IL-13 Fab is immobilized on the chip surface via a secondary anti-human Lκ antibody (Jackson Immunochemicals). This capture antibody was covalently bound using the 'Amine coupling kit' (BIAcore, Cat. No. BR-1000-50) as recommended in the manufacturers' protocols. 250 μl of varying concentrations of hrIL-13 was injected at flow rate of 20 μl/min and the kinetic trace was recorded. The chip surface was regenerated by two acid wash steps using 100 mM HCl and injecting 10 μl with a flow rate of 20 μl/min. This treatment leads to dissociation of the Fab IL-13 complex due to reversible acid denaturation. No significant loss of binding activity was observed when the antibody was reinjected for a subsequent run. The kinetic traces were evaluated with the BIAcore software applying the 1:1 Langmuir association model The summarized affinity data on human IL-13 is shown in Table 1 herein.
As to B5, the dissociation constant Kd was determined as 100 pM.
On the same count and under the same terms, the result for B6 reads 480 pM.
The same measure, in the same setting: the result for B7 reads 197 pM.
Take B8: the Kd was 343 pM.

The term Kd denotes the equilibrium constant for the complex coming apart.
